The source of these data is the nanobody polyreactivity screen of Harvey et al. (2022).

The data set is described as follows: yeast display, Sf9 membrane polyspecificity reagent, FACS + sequencing; frameworks hold sequencing errors. Summed up:
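Sorting gates, low and high (top ~1%), were placed on anti-HA fluorescence to track expression and on streptavidin fluorescence to track reagent binding. A clone's polyreactivity label is taken from the gate it came out of. The reagent was 10% biotinylated, detergent-solubilized Sf9 membrane, applied for 1 hour at 4 °C to galactose-induced yeast display cells.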
Turning to “QVQLVESGGGLVQAGGSIRLICAASGPIFSSYAIGCYRQAPGKERELVAAITSSGTSTYYADSVKGRFTISRDYAKNTVYVQMTSLKPEDTAVYYCAARRARTGDYWGQGTQVTLSS”, the “polyreactivity (PSR sort gate)” value is reported as “high polyreactivity”.

For the sequence “QVQLVESGGGLVQAGGSIRLIWAASGSTVPSYTMGWYRQAPGKERELVAAISGSGGSTYYADSVKGRFTISRDNAKNTVYLQMNSLKPEDTAVYSCAADYRLQLSYAFGDDYWGQGPQVTVSS”, the “polyreactivity (PSR sort gate)” value was “low polyreactivity”.

As to “QVQLVESGGGLVQAGGSIRLSCAASGITFGRNTMGWYRQAPAKERELVAAIDSGGNTYADSVKGRFTISRDNAKNTVYLQMNSLKPEDTAVYYCAVDGYYLYYDYDYWGQGTQVTVSS”, the “polyreactivity (PSR sort gate)” value was “low polyreactivity”.

In the case of “QVQLVESGGGLVQAGGSIRLSCAASGRILYGNAMGWYRQAPGKEREFVAAITFRGGSTYYADSVKGRFTISRDNAKNTVYLQMNSLKPEDTAVYYCNARGHCGWGTSMYYWGQGTQVTVSS”, the “polyreactivity (PSR sort gate)” value is listed as “high polyreactivity”.

“QVQLVESGGGLVQAGGSIRLSCAASGRTFGQNPMGWYRQAPGKERELVAVITRGGSTNYADSVKGRFTISRDNAKNTVYLQMNSLKPEDTAVYYCAADYTAYGYDYWGQGTQVTVSS”: the “polyreactivity (PSR sort gate)” value is “low polyreactivity”.

“QVQLVESGGGLVQAGGSIRLSCAASGRTFYPNAMGWYRQAPGKERELVAVISSGGNTDYADSVKGRFTISRDNAKNTVYLQMYSLKPEDTAVYYCNTDTTVVSHYRSYWWGAGYDYWGQGTQVTVSS”: the “polyreactivity (PSR sort gate)” value is on record as “low polyreactivity”.

For the sequence “QVQLVESGGGLVQAGGSIRLSCAASGSIFEVNAMGWYRQAPGKERELVAGISNADSTNYADSVKGRFTISRDNAKNTVYLQMNSLKPEDTAVYYCATDLYRDPPKDLLGPEYDYWGQGTQVTVSS”, the “polyreactivity (PSR sort gate)” value is listed as “low polyreactivity”.

As for “QVQLVESGGGLVQAGGSIRLSCAASGSIFLGYAMGSYRQATGKETELFAAISSGGTRTYYADSVKGRFTITRDNAKNTVYLQMNCLKPEDTAVYYCSARYIPIQYPSYRTWGGYSWGQGTQVTVSS”, the “polyreactivity (PSR sort gate)” value is listed as “high polyreactivity”.

As to “QVQLVESGGGLVQAGGSIRLSCAASGSTFFQYAMGWYRQAPGKERELVAAISSRGGRTYYADSVKGSFTISRDNAKNTVYLQMNSLKPEDTAVYYCAVDHLTRSGDGEYWGQGTQVTVSS”, the “polyreactivity (PSR sort gate)” value is listed as “high polyreactivity”.

As to “QVQLVESGGGLVQAGGSIRLSCAASGSTFKTYVMGWYRQAPGKERELVAAISFSDGTTYYADSVKGRFTISRDNAKNTVYLQMNSLKPEDTAVYYCAAEGYQSQYDYWGQGTQVTVSS”, the “polyreactivity (PSR sort gate)” value is recorded as “high polyreactivity”.

Turning to “QVQLVESGGGLVQAGGSIRLSCAASGSTFYSYAMGWYRQATGKERELVAAISSGGSTNYADSVKGRFTISRDNAKNTVYLQMNSLKPEDTAVYYCAVDYPVIVYQRGYWGQGTQVTVSS”, the “polyreactivity (PSR sort gate)” value is on record as “low polyreactivity”.

Regarding “QVQLVESGGGLVQAGGSIRLSCAASGYSFNGYAMGWYRQAPGKEREFVAAISWSGGSTYYADSVKGRFTISRDNAKNTVYLQMNSLKPEDTAVYYCAKRRGGGYDYWGQGTQVTVSS”, the “polyreactivity (PSR sort gate)” value was “low polyreactivity”.

For the sequence “QVQLVESGGGLVQAGGSIRLSCDHSGRNLYRNSMGWYRQAPEKERELVARITSSGASTYYADSVKGRFTISRDNAKNTVTIQMNSLKQEYTAVYYCAAQYLSRRYGPYYTYNYRGQGTQVTVSS”, the “polyreactivity (PSR sort gate)” value is “high polyreactivity”.

As for “QVQLVESGGGLVQAGGSIRLSCSASGNIFSDNAMGWYRQAPGKERELGAAITSGGSTNYADSVNGRFTISRDNAKNTVYLQMNSLKPEDTAVYYCAADRGFYPSLWDYDYWGQGTQVTVSS”, the “polyreactivity (PSR sort gate)” value is “low polyreactivity”.

Consider “QVQLVESGGGLVQAGGSIRLTCAASGGTFGRNAMGWYRQAPGKERELVATITRRGGSTYYADSVKGRFTISRDNAKTSVYLQMNSLKAEDTAVYYCAARDVYRGGLFDYWGQGTQVTVSS”, for which the “polyreactivity (PSR sort gate)” value is recorded as “high polyreactivity”.

As to “QVQLVESGGGLVQAGGSLGISCAACGSIFSVNAMGWFRQAPGKERELVAGITISGGRTYYADSVKGRFTISRDNAKNTVYLQKNSLKPEDTAVYYCAAYVDPAYYYWGPGTQVTVSS”, the “polyreactivity (PSR sort gate)” value was “low polyreactivity”.

On to “QVQLVESGGGLVQAGGSLGLSCAASGFIFSSNAMGWYRQARGKERELVAAITSGGGRTYSADSVKRRFTISRDNAKNTVYLQKNSLKPEDTAVYYCNAEQWQSSEYGEWSKRDYWGQGTQVTVSS”, for which the “polyreactivity (PSR sort gate)” value is given as “low polyreactivity”.

As to “QVQLVESGGGLVQAGGSLGLSCAASGFSFDRNAMGWYRQAPGKERGLVAAISSSGGRTYYPDSVKGRFTISRDYAKKTVYLQMNSLKPDDTAVYYCAAKLSRRYYYWGQGTQVTVSS”, the “polyreactivity (PSR sort gate)” value is reported as “high polyreactivity”.

In the case of “QVQLVESGGGLVQAGGSLGLSCAASGFTFTYYAMGWYRQAPGKERELVASISWRGGSTYADSVKGRFTISRDNAQNTVYLQMNSLTPEDTAVYYCAADGYSYGNYIYDYWGQGTQVTVSS”, the “polyreactivity (PSR sort gate)” value is recorded as “low polyreactivity”.

On to “QVQLVESGGGLVQAGGSLGLSCAASGFTFYYYAMGWYRQAPGKERELVAIRFRGGNTYYADSVKGRFTISRDNAENTVYLQMNSLKPEDTAVYYCNADDLGSTYVDYDYWGQGTQVTVSS”, for which the “polyreactivity (PSR sort gate)” value is “low polyreactivity”.

For “QVQLVESGGGLVQAGGSLGLSCAASGSFFYQNAMGWYRQAPGKDREWVAAISRSGGSTYYADSVMGRFTISRDNAKISVDEQMNSLQPEDTPVYYCAARNSRQGSYSRDFWGQGTQVTVSS”, the “polyreactivity (PSR sort gate)” value was “high polyreactivity”.

Turning to “QVQLVESGGGLVQAGGSLGLSCAASGSIFEPYVMGWYRPAPGKERELVAAISESGDTTYYADSVKGRFTISRDNAKNTVYLQRNSLKPEDTAVYYCNAEDPSIDGWWRVGEYDYWGQGTQVTVSS”, the “polyreactivity (PSR sort gate)” value is given as “low polyreactivity”.

Consider “QVQLVESGGGLVQAGGSLGLSCAASGSTFGPNAMGWYRQAPGKERELVARITDSGGSTYYADSVKGRFTISRDNAKNTVDLQMNSLKQDDTAVYYCAAEVYLLSRYYTPAYDYWGQGTLVTVSS”, for which the “polyreactivity (PSR sort gate)” value is reported as “low polyreactivity”.

In the case of “QVQLVESGGGLVQAGGSLHLSCAASGRTFVWYAMGWYRQAPGKERELVAAISWSGTSTYYADSVKGRFTNSRDYAKYNVYLQMNSLKPEDTAVYYCYEKYYYWGQGTQVTVSS”, the “polyreactivity (PSR sort gate)” value is “high polyreactivity”.

Take “QVQLVESGGGLVQAGGSLILSCAASYAMGWYRQAPGKERELVATIKSGGVSTYYADSVKGRFTISRDNAKNTVYLQMNCLKPEDTAVYDCAANASHSTSADYDYWGQGTQVTVSS”: the “polyreactivity (PSR sort gate)” value is given as “low polyreactivity”.

For the sequence “QVQLVESGGGLVQAGGSLLLRCAASGRTFKNYAKGWSRQAPGKERELVAAISSGGGRTKYADSEKGRFTISRDNAKNSVYLQLNSLKPDDTAVYYCAAAFYYRDDYWGQGSQVTVSS”, the “polyreactivity (PSR sort gate)” value is on record as “high polyreactivity”.

Turning to “QVQLVESGGGLVQAGGSLLLSCAAAGSIFRTYAMGWYRQAPGKERELVAAISRSGSSTYYADSVKGRFTISRDNAKNTVYFQMNSLKPEDTAVYYCAALVRKYGVDYWGQGTQVTVSS”, the “polyreactivity (PSR sort gate)” value is “high polyreactivity”.

On to “QVQLVESGGGLVQAGGSLLLSCAASGFTFKCYAMGWYRQAPGKERELVAAISRSGSSTYYADSVKVRFTISRDTAKNTVYLQMNSLKPEDTAVYYCAAYYRTWGGYWGQGTQVTVSS”, for which the “polyreactivity (PSR sort gate)” value is on record as “high polyreactivity”.

In the case of “QVQLVESGGGLVQAGGSLLLSCAASGFTFRYYAMGWNRQAPGKERELVAAINSGGSTNYADSVKGLFTISRDNAKNTVYLQMNSLKPEDTAVYYCAKRGRRGIEYLGSAEMDYWGEGTQVTVSS”, the “polyreactivity (PSR sort gate)” value is “low polyreactivity”.

Take “QVQLVESGGGLVQAGGSLLLSCAASGIIFSSYVMGWYRQAHGKERELVAAISKSGARPSYADSVKGRFTISRDNAKNTVYLQMNSLKPEDTAVYYCAAAWHTAYWVGSDSQGGGYWGQGTQVTVSS”: the “polyreactivity (PSR sort gate)” value is recorded as “low polyreactivity”.

Turning to “QVQLVESGGGLVQAGGSLLLSCAASGLTFERYVMVWYRQAPGKERELVSSISRSGSTYYADSVKGRFTISRDNAKNTVYLQMNSLKPEDTAVYYCNADRFWFHWVYSRYHYDYWGQGTQVTVSS”, the “polyreactivity (PSR sort gate)” value is listed as “high polyreactivity”.

Turning to “QVQLVESGGGLVQAGGSLLLSCAASGLTFTDNAMGWSRQAPGKERELVAAISQSGGRTFYADSVKGRFTISRDNAKNTVYLQINSLKPEDPAVYYCNSRRGSVAKYGYLGQGTQVTVSS”, the “polyreactivity (PSR sort gate)” value is on record as “high polyreactivity”.

As for “QVQLVESGGGLVQAGGSLLLSCAASGRIFIDYAMGLYRQAPGKERELVATISESGGTTYYADSVKGRFTISRDNGKNTVYLQMNSLKPEDTAVYYCAAKRLCRPYDYWGQGTQVTVSS”, the “polyreactivity (PSR sort gate)” value was “low polyreactivity”.

For “QVQLVESGGGLVQAGGSLLLSCAASGRIFRSYAMGWYRQAPGKERELVAAISSGGSTKYADSVKGRFTISRDNAKNTVYLQMNSLKPVDTAVYYCAASRTRLGTSGTSYGAAYDYWGQGTQVTVSS”, the “polyreactivity (PSR sort gate)” value is “high polyreactivity”.

In the case of “QVQLVESGGGLVQAGGSLLLSCAASGRIINYYAMGWYRQAPGKEREFVAAITRSGGRTYYADSVKGRFTISRDNAKNTVYLQMNSLKPEDTAVYYCAAPYGTYAYDYWGQGTQVTVSS”, the “polyreactivity (PSR sort gate)” value was “high polyreactivity”.

With “QVQLVESGGGLVQAGGSLLLSCAASGRTFTGYAMGGYRQAPVKERELVAAISASGGSTYYADSVKGRFTISRDNAKNTVYLQMNSLIPEDTAVYYCAAETWYSVLWEEGYDYWGQGTQVTVSS”, the “polyreactivity (PSR sort gate)” value was “low polyreactivity”.

As for “QVQLVESGGGLVQAGGSLLLSCAASGSIFYNYAMGWYRQAPGKERELVAAISQSGGSTRYADSVKGRFTISRDNAKNTVYLQMNSLKPEDTAVYYCAASRRKGQGSAGFGYWGQGTQVTVSS”, the “polyreactivity (PSR sort gate)” value is recorded as “high polyreactivity”.

Take “QVQLVESGGGLVQAGGSLLLSCAASGSTFAWYAMGWNRQAPGKERELVAAISRTGRTYYADSVKGRFTISRDNAKNTVYLEMNSLKPEDTAVYYCAARIERFYRDQRYDYWGQGTQVTVSS”: the “polyreactivity (PSR sort gate)” value is “high polyreactivity”.

Consider “QVQLVESGGGLVQAGGSLLLSCAASGSTFGSYDMGWYRQAPGKERELVATISTSGSGTYYADSVKGRFTISRDNSKNTVYLQMNSLKPEDTAFYDCAKDPADGRRFRYGYWGQGTQVTVSS”, for which the “polyreactivity (PSR sort gate)” value is “low polyreactivity”.

Consider “QVQLVESGGGLVQAGGSLLLSCAASGSTFGYNTMGWYRQAPGKERELVAAINYSGGRTYYADSVKGRFTISRDYAMNTVYLQMNSQKPEDTAVYYCNALSYPSRVYDAYDYWGQGTQVTVSS”, for which the “polyreactivity (PSR sort gate)” value is on record as “high polyreactivity”.

On to “QVQLVESGGGLVQAGGSLLLSCAPSGITFVWYAMVWYRQAPGKERELVAAISRGGSTYYADSVKGRFTISRDNAKNTVYLQMNSLKPVDTAVYYCAARAPYIQQSVHISPRYYYSGQGTQVTVSS”, for which the “polyreactivity (PSR sort gate)” value is “high polyreactivity”.
